Test results as given in patent US20230414780A1 (VECT HORUS, published 2023).

Assays:
Test in all cases: apparent Kd, flow cytometry, CHO cells
[1] = target: T1, human transferrin receptor (hTfR) fused to EGFP, on CHO cells (human, UniProt P02786 1-760)
T1 construct: whole, on cells; also called human TfR; CHO-hTfR-EGFP; not shown: EGFP from pEGFP-C1 vector, fused to the N-terminal (intracellular) end of hTfR
Method: (§1) The binding properties of VHHs with affinity for the TfR from different species (i.e., human (h), mouse (m) and rhesus monkey (rh)) were tested using flow cytometry, and apparent affinities (Kd app) were determined. All experiments were performed in 96 well plates using 2×10⁵ cells/well, at 4° C. with shaking. CHO cell lines expressing the hTfR, mTfR or rhTfR fused to EGFP were saturated with PBS/BSA 2% solution during 30 min to avoid nonspecific binding, followed by incubation with purified VHHs at increasing concentrations for 1 hr. After one wash in PBS/BSA 2%, cells were incubated for 1 hr with an anti-6His tag antibody (mouse), washed twice with PBS/BSA 2%, and incubated for 1 hr with an Alexa647-conjugated anti-mouse secondary antibody. After two last washes in PBS/BSA 2%, cells were fixed by incubation for 15 min with PBS/PFA 2%, washed once with PBS and finally resuspended in PBS. Fluorescence levels were assessed using an Attune NxT flow cytometer (Thermo Fisher Scientific). Experimental data were fitted with GraphPad Prism® software using a nonlinear fit to determine the apparent Kd constants. […] Table 5 hereafter summarizes apparent Kd obtained for the tested VHHs.

[2] = target: T2, mouse transferrin receptor (mTfR) fused to EGFP, on CHO cells (mouse, UniProt Q62351 1-763)
T2 construct: whole, on cells; also called mouse TfR; CHO-mTfR-EGFP; not shown: EGFP
T2 sequence (Q62351 whole entry, the tested form may be a part): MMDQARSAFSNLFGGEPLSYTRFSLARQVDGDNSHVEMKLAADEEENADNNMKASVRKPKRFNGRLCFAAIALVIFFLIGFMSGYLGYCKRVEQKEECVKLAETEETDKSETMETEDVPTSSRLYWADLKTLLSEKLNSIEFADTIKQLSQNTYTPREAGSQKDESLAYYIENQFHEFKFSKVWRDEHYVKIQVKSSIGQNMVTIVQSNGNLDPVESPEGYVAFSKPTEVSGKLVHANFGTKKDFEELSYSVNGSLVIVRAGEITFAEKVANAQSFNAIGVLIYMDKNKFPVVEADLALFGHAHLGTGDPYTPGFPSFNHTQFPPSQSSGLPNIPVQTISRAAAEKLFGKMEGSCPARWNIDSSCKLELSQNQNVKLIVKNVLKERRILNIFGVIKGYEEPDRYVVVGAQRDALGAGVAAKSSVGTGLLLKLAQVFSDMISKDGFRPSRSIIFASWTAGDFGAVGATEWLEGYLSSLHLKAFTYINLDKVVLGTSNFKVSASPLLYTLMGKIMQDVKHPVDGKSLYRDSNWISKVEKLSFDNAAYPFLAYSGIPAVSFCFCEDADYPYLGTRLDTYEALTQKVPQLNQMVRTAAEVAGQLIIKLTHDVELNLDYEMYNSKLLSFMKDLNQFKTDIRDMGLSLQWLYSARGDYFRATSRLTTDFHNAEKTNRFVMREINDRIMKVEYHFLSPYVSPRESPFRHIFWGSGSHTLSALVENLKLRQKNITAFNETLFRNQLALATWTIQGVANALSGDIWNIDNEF
Method: as §1

[3] = target: T3, rhesus monkey transferrin receptor (rhTfR) fused to EGFP, on CHO cells (rhesus monkey)
T3 construct: whole, on cells; also called rhesus monkey TfR
Method: as §1

T1 sequence (P02786 whole entry, the tested form may be a part): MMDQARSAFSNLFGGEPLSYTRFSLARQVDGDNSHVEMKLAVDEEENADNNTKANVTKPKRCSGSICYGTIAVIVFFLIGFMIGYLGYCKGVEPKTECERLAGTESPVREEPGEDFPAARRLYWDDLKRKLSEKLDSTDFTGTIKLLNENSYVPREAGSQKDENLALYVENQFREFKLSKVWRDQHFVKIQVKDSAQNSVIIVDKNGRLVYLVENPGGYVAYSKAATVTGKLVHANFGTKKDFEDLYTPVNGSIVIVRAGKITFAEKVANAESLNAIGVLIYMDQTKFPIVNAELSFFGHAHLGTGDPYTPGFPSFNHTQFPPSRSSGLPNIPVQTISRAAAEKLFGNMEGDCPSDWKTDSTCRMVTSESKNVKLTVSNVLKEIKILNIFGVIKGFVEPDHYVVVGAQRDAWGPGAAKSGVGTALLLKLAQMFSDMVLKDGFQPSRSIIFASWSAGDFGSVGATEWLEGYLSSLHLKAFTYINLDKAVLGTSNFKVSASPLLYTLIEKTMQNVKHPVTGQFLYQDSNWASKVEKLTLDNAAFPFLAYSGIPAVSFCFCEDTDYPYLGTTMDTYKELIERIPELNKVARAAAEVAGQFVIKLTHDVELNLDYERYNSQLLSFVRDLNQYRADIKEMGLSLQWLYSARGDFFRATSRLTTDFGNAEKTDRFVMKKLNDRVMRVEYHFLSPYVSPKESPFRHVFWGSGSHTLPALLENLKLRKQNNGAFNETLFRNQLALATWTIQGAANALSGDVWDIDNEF

| Binder | Kd [1] [nM] | Kd [2] [nM] | Kd [3] [nM] |
| --- | --- | --- | --- |
| B8^V2 (VHH) VHH: EVQLVESGGGVVQPGGSLRLSCAASGEIFSINFMRWYGQAPGKQREWVAGFTRDGSTNYPDSAKGRFTISRDNAKNTVYLQIDSLKPEDTAVYYCYMLDTWGQGTQVTVSS | 0.1 | 0.2 | 0.1 |
| B8^V5 (VHH) VHH: EVQLVESGGGVVQPGGSLRLSCAASGEIFSINFMRWYRQAPGKIREWVAGFTRDGSTNYPDSAKGRFTISRDNAKNTVYLQIDSLKPEDTAVYYCYMLDTWGQGTQVTVSS | 2.3 | 3.8 | 2.1 |
| B8^V4 (VHH) VHH: EVQLVESGGGVVQPGGSLRLSCAASGEIFSINFMRWYRQAPIKQREWVAGFTRDGSTNYPDSAKGRFTISRDNAKNTVYLQIDSLKPEDTAVYYCYMLDTWGQGTQVTVSS | 0.4 | 0.6 | 0.3 |
| VHH A24 (C5^h5) (VHH) VHH: EVQLVESGGGVVQPGGSLRLSCAASGTDFSINFIRWVRQAPGKGLEWVAGFTATGNTNYADSVKGRFTISRDNAKNTLYLQMNSLRPEDTAVYYCYMLDKWGQGTQVTVSS | 193 |  |  |
| C5^h16 (VHH) VHH: EVQLVESGGGLVQPGGSLRLSCAASGTDFSINFIRWYRQAPGKGLEFVAGFTATGNTNYADSVKGRFTISRDNSKNTLYLQMNSLRAEDTAVYYCYMLDKWGQGTLVTVSS | 8.1 | 582 | 760 |
| C5^V20 (VHH) VHH: EVQLVESGGGVVQPGGSLKLSCVASGHDFSINFIRWYRQAPGKQREFVAGFTATGNTNYADSMKGRFTISRDNTKNAVYLQIDSLKPEDTAVYYCYMLDKWGQGTQVTVSS | 2.5 | 125 | 6.1 |
| C5^h26 (VHH) VHH: EVQLVESGGGVVQPGGSLRLSCAASGTDFSINFIRWYRQAPGKGLEWVAGFTATGNTNYADSVKGRFTISRDNAKNTLYLQIDSLRPEDTAVYYCYMLDKWGQGTQVTVSS | 4 | 675 | 656 |
| VHH A14 (C5^V14) (VHH) VHH: EVQLVESGGGVVQPGGSLKLSCVASGTDFSINFIRWYRQAPGKQREFVAGFTATGNSNYADSMKGRFTISRDNTKNAVYLQIDSLKPEDTAVYYCYMLDKWGQGTQVTVSS | 3.3 | 158 | 3.9 |
| C5^h13 (VHH) VHH: EVQLVESGGGVVQPGGSLRLSCAASGTDFSINFIRWYRQAPGKGLEFVAGFTATGNTNYADSVKGRFTISRDNTKNTLYLQMNSLRPEDTAVYYCYMLDKWGQGTQVTVSS | 8.3 | 554 | 730 |
| C5^V21 (VHH) VHH: EVQLVESGGGVVQPGGSLKLSCVASGTDFSINFIRWYRQAPGKQREFVAGWTATGNTNYADSMKGRFTISRDNTKNAVYLQIDSLKPEDTAVYYCYMLDKWGQGTQVTVSS | 2.4 | 120 | 8.2 |
| C5^h21 (VHH) VHH: EVQLVESGGGVVQPGGSLRLSCAASGTDFSINFIRWYRQAPGKGLEFVAGFTATGNTNYADSVKGRFTISRDNAKNTLYLQMNSLKPEDTAVYYCYMLDKWGQGTQVTVSS | 8.8 | 600 | 1010 |
| C5^h15 (VHH) VHH: EVQLVESGGGVVQPGGSLRLSCVASGTDFSINFIRWVRQAPGKGLEWVAGFTATGNTNYADSVKGRFTISRDNTKNTLYLQMDSLRPEDTAVYYCYMLDKWGQGTQVTVSS | 1090 | 452 |  |
| C5^V22 (VHH) VHH: EVQLVESGGGVVQPGGSLKLSCVASGTDFSINFIRWYRQAPGKQREFVAGYTATGNTNYADSMKGRFTISRDNTKNAVYLQIDSLKPEDTAVYYCYMLDKWGQGTQVTVSS | 2.7 | 131 | 11 |
| C5^h12 (VHH) VHH: EVQLVESGGGVVQPGGSLRLSCAASGTDFSINFIRWYRQAPGKGLEFVAGFTATGNTNYADSVKGRFTISRDNAKNTLYLQIDSLRPEDTAVYYCYMLDKWGQGTQVTVSS | 4.3 | 331 | 361 |
| C5^V25 (VHH) VHH: EVQLVESGGGVVQPGGSLKLSCVASGTDFSINFIRWYRQAPGKQREFVAGFTATGNTNYADSMKGRFTISRDNTKNAVYLQIDSLKPEDTAVYYCYLLDKWGQGTQVTVSS | 4.5 | 136 | 429 |
| VHH A21 (C5^h2) (VHH) VHH: EVQLVESGGGVVQPGGSLRLSCAASGTDFSINFIRWVRQAPGKQREFVAGFTATGNTNYADSVKGRFTISRDNAKNTLYLQMNSLRPEDTAVYYCYMLDKWGQGTQVTVSS | 267 | 225 |  |
| C5^h10 (VHH) VHH: EVQLVESGGGVVQPGGSLKLSCAASGTDFSINFIRWVRQAPGKGLEWVAGFTATGNTNYADSVKGRFTISRDNTKNTLYLQINSLRPEDTAVYYCYMLDKWGQGTQVTVSS | 1070 | 845 |  |
| C5^h17 (VHH) VHH: EVQLVESGGGVVQPGGSLKLSCVASGTDFSINFIRWVRQAPGKGLEFVAGFTATGNTNYADSMKGRFTISRDNTKNALYLQIDSLRPEDTAVYYCYMLDKWGQGTQVTVSS | 630 | 898 |  |
| VHH A10 (C5^V10) (VHH) VHH: EVQLVESGGGVVQPGGSLKLSCVASGTDFSLNFIRWYRQAPGKQREFVAGFTATGNTNYADSMKGRFTISRDNTKNAVYLQIDSLKPEDTAVYYCYMLDKWGQGTQVTVSS | 3.4 | 159 | 5.1 |
| C5^h8 (VHH) VHH: EVQLVESGGGVVQPGGSLRLSCAASGTDFSINFIRWVRQAPGKGLEWVAGFTATGNTNYADSVKGRFTISRDNTKNTLYLQIDSLRPEDTAVYYCYMLDKWGQGTQVTVSS | 987 | 656 |  |
| C5^h23 (VHH) VHH: EVQLVESGGGVVQPGGSLRLSCAASGTDFSINFIRWVRQAPGKQREFVAGFTATGNTNYADSVKGRFTISRDNAKNTLYLQMNSLRPEDTAVYYCYMLDKWGQGTQVTVSS | 594 | 1540 | 2000 |
| C5^V23 (VHH) VHH: EVQLVESGGGVVQPGGSLKLSCVASGTDFSINFIRWYRQAPGKQREFVAGFTATGNTNYADSMKGRFTISRDNTKNAVYLQIDSLKPEDTAVYYCHMLDKWGQGTQVTVSS | 4.5 | 254 | 353 |
| C5^h14 (VHH) VHH: EVQLVESGGGVVQPGGSLRLSCAASGTDFSINFIRWVRQAPGKGLEWVAGFTATGNTNYADSVKGRFTISRDNTKNALYLQMNSLRPEDTAVYYCYMLDKWGQGTQVTVSS | 1100 | 164 |  |
| C5^V26 (VHH) VHH: EVQLVESGGGVVQPGGSLKLSCVASGTDFSINFIRWYRQAPGKQREFVAGFTATGNTNYADSMKGRFTISRDNTKNAVYLQIDSLKPEDTAVYYCYVLDKWGQGTQVTVSS | 7.9 | 211 | 335 |
| C5^h24 (VHH) VHH: EVQLVESGGGVVQPGGSLRLSCAASGTDFSINFIRWYRQAPGKGLEFVAGFTATGNTNYADSMKGRFTISRDNAKNTLYLQMNSLRPEDTAVYYCYMLDKWGQGTQVTVSS | 4.1 | 624 | 641 |
| C5^V24 (VHH) VHH: EVQLVESGGGVVQPGGSLKLSCVASGTDFSINFIRWYRQAPGKQREFVAGFTATGNTNYADSMKGRFTISRDNTKNAVYLQIDSLKPEDTAVYYCWMLDKWGQGTQVTVSS | 4.3 | 218 | 564 |
| C5^h11 (VHH) VHH: EVQLVESGGGVVQPGGSLRLSCAASGTDFSINFIRWVRQAPGKGLEWVAGFTATGNTNYADSMKGRFTISRDNTKNTLYLQMNSLRPEDTAVYYCYMLDKWGQGTQVTVSS | 1130 | 1370 | 1240 |
| C5^V28 (VHH) VHH: EVQLVESGGGVVQPGGSLKLSCVASGADFSINFIRWYRQAPGKQREFVAGFSATGNTNYADSMKGRFTISRDNTKNAVYLQIDSLKPEDTAVYYCYMLDKWGQGTQVTVSS | 3.3 | 160 | 371 |
